Reference: patent publication US20100297153A1 (CRUCELL HOLLAND B V, published 2010)

Key:
[1] = target: T1, mycATAD3A (ATAD3A with a myc tag at the 5' end) (human, UniProt Q9NVI7 2-586); experiment: immunoprecipitation from lysate of transfected HEK293T cells, immunoblot with anti-myc
T1 construct: Expressed in transfected HEK293T cells and immunoprecipitated from a 1% Triton X-100 lysate; also called 5' myc-tagged ATAD3A
T1 sequence: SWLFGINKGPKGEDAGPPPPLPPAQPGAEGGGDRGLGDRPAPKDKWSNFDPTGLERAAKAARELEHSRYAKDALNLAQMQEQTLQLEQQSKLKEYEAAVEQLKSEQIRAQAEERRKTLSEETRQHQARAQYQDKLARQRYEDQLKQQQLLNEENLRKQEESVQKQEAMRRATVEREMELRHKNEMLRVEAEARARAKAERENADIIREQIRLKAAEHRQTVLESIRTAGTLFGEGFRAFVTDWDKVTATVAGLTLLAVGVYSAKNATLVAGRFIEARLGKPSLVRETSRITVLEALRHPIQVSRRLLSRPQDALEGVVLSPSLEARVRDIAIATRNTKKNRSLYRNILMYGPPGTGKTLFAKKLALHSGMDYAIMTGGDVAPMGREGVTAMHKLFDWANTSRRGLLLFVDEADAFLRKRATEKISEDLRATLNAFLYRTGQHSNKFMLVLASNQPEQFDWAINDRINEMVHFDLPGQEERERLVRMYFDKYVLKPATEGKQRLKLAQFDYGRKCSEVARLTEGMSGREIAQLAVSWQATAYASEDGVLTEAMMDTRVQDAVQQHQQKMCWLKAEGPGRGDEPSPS

[2] = target: T2, ATAD3Amyc (ATAD3A with a myc tag at the 3' end) (human, UniProt Q9NVI7 1-586); experiment: as above
T2 construct: Expressed in transfected HEK293T cells and immunoprecipitated from a 1% Triton X-100 lysate; also called 3' myc-tagged ATAD3A; not shown: C-terminal myc tag, in frame from vector pcDNA3.1/hismycA
T2 sequence: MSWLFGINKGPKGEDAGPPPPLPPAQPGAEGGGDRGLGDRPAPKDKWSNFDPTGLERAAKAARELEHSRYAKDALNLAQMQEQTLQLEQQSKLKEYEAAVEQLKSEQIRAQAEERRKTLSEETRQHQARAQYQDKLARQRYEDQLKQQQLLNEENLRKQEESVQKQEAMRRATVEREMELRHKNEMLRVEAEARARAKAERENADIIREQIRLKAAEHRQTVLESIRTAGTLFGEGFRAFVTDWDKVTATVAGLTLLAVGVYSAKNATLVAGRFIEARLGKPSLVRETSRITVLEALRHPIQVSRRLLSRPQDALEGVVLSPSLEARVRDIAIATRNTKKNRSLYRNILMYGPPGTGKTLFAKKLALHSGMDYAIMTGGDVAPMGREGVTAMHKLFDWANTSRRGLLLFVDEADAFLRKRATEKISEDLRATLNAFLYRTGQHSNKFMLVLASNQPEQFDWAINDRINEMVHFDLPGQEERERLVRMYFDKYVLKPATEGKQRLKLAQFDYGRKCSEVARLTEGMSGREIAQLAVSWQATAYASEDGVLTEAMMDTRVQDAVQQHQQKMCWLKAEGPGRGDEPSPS

[3] = target: T3, ATAD3A (human protein having the amino acid sequence SEQ ID NO:6) (human, UniProt Q9NVI7 2-586, limits assumed); experiment: CR2361 affinity column loaded with NB4 cell lysate, elution at pH 2.7, SDS-PAGE bands identified by MALDI-MS
T3 construct: Endogenous protein from a RIPA lysate of NB4 cells; Bands of 30, 40 and 75 kDa eluted from the CR2361 column gave ATAD3A peptides; No peptides were identified from the 150 kDa band
T3 sequence: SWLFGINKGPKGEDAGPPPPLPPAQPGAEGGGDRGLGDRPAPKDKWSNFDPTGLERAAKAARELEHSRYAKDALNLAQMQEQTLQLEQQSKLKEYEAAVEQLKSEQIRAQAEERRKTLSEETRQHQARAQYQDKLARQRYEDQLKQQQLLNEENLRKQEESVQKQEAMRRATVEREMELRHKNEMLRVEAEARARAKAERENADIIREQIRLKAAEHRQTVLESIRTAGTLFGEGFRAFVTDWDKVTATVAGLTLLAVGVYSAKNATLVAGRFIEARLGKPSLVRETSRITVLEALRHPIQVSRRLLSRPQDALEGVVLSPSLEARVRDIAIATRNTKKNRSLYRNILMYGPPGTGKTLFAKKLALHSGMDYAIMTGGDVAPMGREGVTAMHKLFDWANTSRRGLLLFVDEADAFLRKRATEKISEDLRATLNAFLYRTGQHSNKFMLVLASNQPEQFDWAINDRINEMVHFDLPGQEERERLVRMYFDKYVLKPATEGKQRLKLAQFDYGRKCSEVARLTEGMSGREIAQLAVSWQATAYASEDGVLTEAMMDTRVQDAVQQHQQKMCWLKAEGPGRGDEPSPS
Experimental: In advance the IgG1s were passed over a 100 kDa ultracentrifugal device to remove incomplete small IgG fragments.
For the purification of the target antigen of CR2361, an affinity column was prepared as described above for CR2401. A cell lysate of 4*10⁹ NB4 cell was prepared in RIPA buffer, according to the method described in Example 5. The cell lysate was treated essentially as described above and applied to the negative control affinity column that was connected in series to the CR2361 affinity column and an AKTA FPLC 900. The system was equilibrated with RIPA buffer. The lysate was applied to the columns at 1 ml/min and the columns were washed with 5 column volumes of RIPA buffer, followed by a salt gradient from 150 mM NaCl to 500 mM NaCl, a wash with 5 column volumes TX-100 buffer (1% Triton X-100, 150 mM NaCl, 50 mM Tris pH 7.4, protease inhibitors (Roche)) and an elution of 5 column volumes glycine, pH 2.7, whereby after 1 column volume of elution buffer the flow through was put for 10 minutes on hold to enhance the release of immune complexes. Next, the column was washed with 5 column volumes of TX-100 buffer. The eluted fractions of 0.5 ml were neutralized with 20 μl 2 M Tris/HCl, pH 7.4, and 20 μl of the samples were run on a non-reducing SDS-PAGE Criterion gel and stained with silver stain according to standard techniques known to the skilled artisan. […]

Measured: binding result

B1: CR2361 IgG1 (antibody, V domains shown)
VH: EVQLVESGGGLVQPGRSLRLSCAASGFTFDDYGMSWVRQAPGKGLEWVSLISWDGGSTYYADSVKGRFTISRDNSKNSLYLQMNSLRAEDTAVYYCAKWAPSHSFDYWGQGTLVTVSS
VL: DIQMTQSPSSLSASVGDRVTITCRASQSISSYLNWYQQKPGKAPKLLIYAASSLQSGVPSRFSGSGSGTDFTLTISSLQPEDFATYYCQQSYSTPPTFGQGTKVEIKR
notes: also called IgG1 CR2361; CR24361 (apparent misprint)
binds: all assays above
